From patent publication US20230392126A1, “TISSUE ORGANOIDS” (priority 2016, published 2023)

Legend:
[1] = Acquisition of ethanol CPP in GhBChE and GWT mice; assay type: in vivo, mouse; details: 2 g/kg ethanol i.p., specificity control
Procedure: CPP apparatus: The CPP apparatus (FIG. 17; Med Associates, E. Fairfield, VT, USA) consisted of two larger chambers (16.8×12.7×12.7 cm), which were separated by a smaller chamber (7.2×12.7×12.7 cm) as previously described (Yan et al., 2013). […] Time spent in each chamber was measure via photobeam breaks and recorded. CPP was determined on testing days via time spent in the drug-paired side minus time spent in the saline-paired side.
Acquisition of CPP: A biased CPP procedure was used similar to that from a previous study (Yan et al., 2013). Acquisition of CPP consisted of three sequential procedures—pretest, conditioning, and test. […] On Day 6 (test day) mice were allowed to explore the entire chambers for 20 min and time spent in each area was recorded. […]
Next, protection against development of cocaine-seeking was assessed using the conditioned place preference (CPP) paradigm, which is thought to model reward learning and seeking because experimental animals approach and remain in contact with cues that have been paired with the effects of the reward. hBChE-expressing cells were grafted to cocaine-naïve mice with GWT animals as controls. […] As an additional control, ethanol CPP was measured after 4 days of conditioning in GhBChE and GWT mice.

[2] = Acute drug overdose test: cocaine-induced lethality; assay type: in vivo, mouse; details: 40, 80, 120, 160 mg/kg cocaine i.p.
Procedure: For all behavioral experiments except where noted, C57BL/6J mice were used. Roughly equal numbers of adult male and female mice were group-housed until surgery. Mice were maintained under controlled temperature and humidity conditions on a 12 h:12 h light:dark cycle (lights on at 7:00). Water and food were available ad libitum. Mice weighed around 25-30 g at the beginning of the experiments. All procedures followed National Institutes of Health Guide for the Care and Use of Laboratory Animal and were approved by the University of Chicago Institutional Animal Care and Use Committee.
Drug: Cocaine HCl and methamphetamine HCl (Sigma-Aldrich, Saint Louis, MO) were dissolved in sterile saline and delivered intraperitoneally at appropriates doses in a volume of 10 mL/kg. […]
Acute drug overdose test: Two weeks after grafting surgery, 4 groups of GhBChE and 4 groups of GWT mice (n=8 each in each group) received i.p. injections of cocaine at 40, 120, and 160 mg/kg. […] Mice were monitored for 2 h following injection and percent of cocaine- and METH-induced lethality was calculated.
To first determine whether engrafting hBChE-expressing cells protects mice from acute systemic toxicity of cocaine, we delivered different doses of cocaine to grafted mice and calculated the lethality rates of cocaine. […]

[3] = after i.v. injection; cited from earlier work

B1: hBChE: modified human butyrylcholinesterase (E30-6, SEQ ID NO: 41), cocaine hydrolase, expressed from engineered epidermal cells / skin grafts (protein)
chain: MHSKVTIICIRFLFWFLLLCMLIGKSHTEDDIIIATKNGKVRGMNLTVFGGTVTAFLGIPYAQPPLGRLRFKKPQSLTKWSDIWNATKYANSCCQNIDQSFPGFHGSEMWNPNTDLSEDCLYLNVWIPAPKPKNATVLIWIYGGGFQTGTSSLHVYDGKFLARVERVIVVSMNYRVGALGFLALPGNPEAPGNMGLFDQQLALQWVQKNIAAFGGNPKSVTLFGESSGAASVSLHLLSPGSHSLFTRAILQSGSANAPWAVTSLYEARNRTLNLAKLTGCSRENETEIIKCLRNKDPQEILLNEAFVVPYGTALGVNFGPTVDGDFLTDMPDILLELGQFKKTQILVGVNKDEGTWFLVGGAPGFSKDNNSIITRKEFQEGLKIFFPGVSEFGKESILFHYTDWVDDQRPENYREALGDVVGDYNFICPALEFTKKFSEWGNNAFFYYFEHRSSKLPWPEWMGVMHGYEIEFVFGLPLERRDNYTKAEEILSRSIVKRWANFAKYGNPNETQNNSTSWPVFKSTEQKYLTLNTESTRIMTKLRAQQCRFWTSFFPKVLEMTGNIDEAEWEWKAGFHRWNNYMMDWKNQFNDYTSKKESCVGL
modifications: Human mutant BChE
ethanol CPP after 4 days of conditioning [1]: spent significantly more time in ethanol-paired environments | cocaine-induced lethality in GhBChE mice [2]: nearly lethality | half-life in vivo [3]: short half-life in vivo
